Consider ten molecules from patent publication US20070244048A1 (published 2007).

First the molecules themselves.
T1: human NMUR1 (human, UniProt Q9HB89 1-426)
T1 sequence (looked up): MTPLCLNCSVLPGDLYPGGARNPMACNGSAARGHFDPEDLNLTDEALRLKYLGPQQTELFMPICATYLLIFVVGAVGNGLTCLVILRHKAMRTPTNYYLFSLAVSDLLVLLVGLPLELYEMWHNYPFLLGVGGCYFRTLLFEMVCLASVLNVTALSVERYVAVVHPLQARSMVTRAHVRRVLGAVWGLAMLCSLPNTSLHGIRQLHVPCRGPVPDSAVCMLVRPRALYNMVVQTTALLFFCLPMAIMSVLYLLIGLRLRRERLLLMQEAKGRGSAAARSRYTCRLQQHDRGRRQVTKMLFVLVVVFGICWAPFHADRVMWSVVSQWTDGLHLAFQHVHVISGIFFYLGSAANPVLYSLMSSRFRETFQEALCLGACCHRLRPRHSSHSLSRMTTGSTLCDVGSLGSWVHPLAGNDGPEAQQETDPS

B1: neuromedin U receptor agonist P (peptide)
peptide: FRVDEEFQSPFASQSRGFWLFRA[hArg]N-NH2
modifications: N-terminus assumed
SMILES: CC(C)C[C@H](NC(=O)[C@H](Cc1c[nH]c2ccccc12)NC(=O)[C@H](Cc1ccccc1)NC(=O)CNC(=O)[C@H](CCCNC(=N)N)NC(=O)[C@H](CO)NC(=O)[C@H](CCC(N)=O)NC(=O)[C@H](CO)NC(=O)[C@H](C)NC(=O)[C@H](Cc1ccccc1)NC(=O)[C@@H]1CCCN1C(=O)[C@H](CO)NC(=O)[C@H](CCC(N)=O)NC(=O)[C@H](Cc1ccccc1)NC(=O)[C@H](CCC(=O)O)NC(=O)[C@H](CCC(=O)O)NC(=O)[C@H](CC(=O)O)NC(=O)[C@@H](NC(=O)[C@H](CCCNC(=N)N)NC(=O)[C@@H](N)Cc1ccccc1)C(C)C)C(=O)N[C@@H](Cc1ccccc1)C(=O)N[C@@H](CCCNC(=N)N)C(=O)N[C@@H](C)C(=O)N[C@@H](CCCCNC(=N)N)C(=O)N[C@@H](CC(N)=O)C(N)=O
B2: neuromedin U receptor agonist N (peptide)
peptide: FALFRPRN-NH2
B3: neuromedin U receptor agonist I (peptide)
peptide: FWLFRP[hArg]N-NH2
modifications: N-terminus assumed
SMILES: CC(C)C[C@H](NC(=O)[C@H](Cc1c[nH]c2ccccc12)NC(=O)[C@@H](N)Cc1ccccc1)C(=O)N[C@@H](Cc1ccccc1)C(=O)N[C@@H](CCCNC(=N)N)C(=O)N1CCC[C@H]1C(=O)N[C@@H](CCCCNC(=N)N)C(=O)N[C@@H](CC(N)=O)C(N)=O
B4: neuromedin U receptor agonist J (peptide)
peptide: FWLFRA[hArg]N-NH2
modifications: N-terminus assumed
SMILES: CC(C)C[C@H](NC(=O)[C@H](Cc1c[nH]c2ccccc12)NC(=O)[C@@H](N)Cc1ccccc1)C(=O)N[C@@H](Cc1ccccc1)C(=O)N[C@@H](CCCNC(=N)N)C(=O)N[C@@H](C)C(=O)N[C@@H](CCCCNC(=N)N)C(=O)N[C@@H](CC(N)=O)C(N)=O
B5: neuromedin U receptor agonist Q (peptide)
peptide: FRVDEEFQSPFASQSRGFWLFRPR[dNle]-NH2
modifications: N-terminus assumed
SMILES: CCCC[C@@H](NC(=O)[C@H](CCCNC(=N)N)NC(=O)[C@@H]1CCCN1C(=O)[C@H](CCCNC(=N)N)NC(=O)[C@H](Cc1ccccc1)NC(=O)[C@H](CC(C)C)NC(=O)[C@H](Cc1c[nH]c2ccccc12)NC(=O)[C@H](Cc1ccccc1)NC(=O)CNC(=O)[C@H](CCCNC(=N)N)NC(=O)[C@H](CO)NC(=O)[C@H](CCC(N)=O)NC(=O)[C@H](CO)NC(=O)[C@H](C)NC(=O)[C@H](Cc1ccccc1)NC(=O)[C@@H]1CCCN1C(=O)[C@H](CO)NC(=O)[C@H](CCC(N)=O)NC(=O)[C@H](Cc1ccccc1)NC(=O)[C@H](CCC(=O)O)NC(=O)[C@H](CCC(=O)O)NC(=O)[C@H](CC(=O)O)NC(=O)[C@@H](NC(=O)[C@H](CCCNC(=N)N)NC(=O)[C@@H](N)Cc1ccccc1)C(C)C)C(N)=O
B6: neuromedin U receptor agonist E (peptide)
peptide: Ac-F[dL]WRPRN-NH2
SMILES: CC(=O)N[C@@H](Cc1ccccc1)C(=O)N[C@H](CC(C)C)C(=O)N[C@@H](Cc1c[nH]c2ccccc12)C(=O)N[C@@H](CCCNC(=N)N)C(=O)N1CCC[C@H]1C(=O)N[C@@H](CCCNC(=N)N)C(=O)N[C@@H](CC(N)=O)C(N)=O
B7: neuromedin U receptor agonist D (peptide)
peptide: YF[dA]WRPRN-NH2
modifications: N-terminus assumed
SMILES: C[C@@H](NC(=O)[C@H](Cc1ccccc1)NC(=O)[C@@H](N)Cc1ccc(O)cc1)C(=O)N[C@@H](Cc1c[nH]c2ccccc12)C(=O)N[C@@H](CCCNC(=N)N)C(=O)N1CCC[C@H]1C(=O)N[C@@H](CCCNC(=N)N)C(=O)N[C@@H](CC(N)=O)C(N)=O
B8: neuromedin U receptor agonist B (peptide)
peptide: YF[dL]WRPRN-NH2
modifications: N-terminus assumed
SMILES: CC(C)C[C@@H](NC(=O)[C@H](Cc1ccccc1)NC(=O)[C@@H](N)Cc1ccc(O)cc1)C(=O)N[C@@H](Cc1c[nH]c2ccccc12)C(=O)N[C@@H](CCCNC(=N)N)C(=O)N1CCC[C@H]1C(=O)N[C@@H](CCCNC(=N)N)C(=O)N[C@@H](CC(N)=O)C(N)=O
B9: neuromedin U receptor agonist C (peptide)
peptide: YFGWRPRN-NH2
B10: neuromedin U receptor agonist G (peptide)
peptide: FRVDEEFQSPFASQSRGYFWRPRN-NH2

Non-standard residues stand in square brackets, D forms with d. No end group written: not given here. hArg = N=C(N)NCCCC[C@H](N)C(=O)O; dNle = CCCC[C@@H](N)C(=O)O Where only a bound is given, the exact number is not on record here.

T2 sequence (Q9GZQ4 whole entry): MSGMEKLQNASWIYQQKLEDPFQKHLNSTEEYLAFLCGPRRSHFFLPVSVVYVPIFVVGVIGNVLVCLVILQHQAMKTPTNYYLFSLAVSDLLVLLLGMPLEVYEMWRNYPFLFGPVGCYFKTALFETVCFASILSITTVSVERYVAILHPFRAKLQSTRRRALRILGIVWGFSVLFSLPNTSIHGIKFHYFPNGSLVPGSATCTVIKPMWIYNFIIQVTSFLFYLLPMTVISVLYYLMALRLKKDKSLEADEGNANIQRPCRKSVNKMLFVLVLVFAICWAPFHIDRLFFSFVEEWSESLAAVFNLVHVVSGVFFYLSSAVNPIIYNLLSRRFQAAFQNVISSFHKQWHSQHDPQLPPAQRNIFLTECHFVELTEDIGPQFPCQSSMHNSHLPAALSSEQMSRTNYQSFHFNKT

For the first assay, the target named is T1, human NMUR1. The assay is described as follows: cell-based or functional assay.
As usually defined, the EC50 is the concentration at which the effect is half-maximal. Consider B1, for which the “% activity” value turned out to be 11% and the “EC50” value amounted to 46 nM.
The like results for B2 were, in that order, 87% and 53 nM.
The like results for B3 were, in that order, 7% and above 1000 nM.
The corresponding values for B4 are 0% and above 1000 nM.
For B5, the “% activity” value worked out at 0% and the “EC50” value is above 1000 nM.

Another assay has as its target T2, human NMUR2 (human, UniProt Q9GZQ4 1-415). The assay can be described thus: cell-based or functional assay.
With B1, the “% activity” value was found to be 100% and it took 25 nM to reach a half-maximal effect (EC50).
For B2, the “% activity” value turned out to be 100% and the “EC50” value was found to be 3.9 nM.
On to B3, for which the “% activity” value stood at 99% and the “EC50” value amounted to 10 nM.
The corresponding values for B4 are 59% and 160 nM.
The like results for B5 were, in that order, 97% and 18.3 nM.

The target of a further assay is T1, human NMUR1. The assay is described as follows: cell-based or functional assay. The source holds these as a separate data set.
On to B6, for which the “% activity” value turned out to be 100% and the “IC50 (nM), functional” value came out at 1.9 nM.
Take B7: the “% activity” value was determined as 96% and the “IC50 (nM), functional” value was 1.5 nM.
The corresponding values for B8 are 103% and 9 nM.
B9: the “% activity” value turned out to be 87% and the “IC50 (nM), functional” value was 1.1 nM.
The like results for B10 were, in that order, 91% and 8.4 nM.

In the next assay the target is T2, human NMUR2. The assay is described as follows: cell-based or functional assay. This is another data set of the same source.
Take B6: the “% activity” value was determined as 1.8% and the “IC50 (nM), functional” value is above 1000 nM.
As to B7, the “% activity” value was 0% and the “IC50 (nM), functional” value was above 1000 nM.
The corresponding values for B8 are 0% and above 1000 nM.
The like results for B9 were, in that order, 0% and above 1000 nM.
As to B10, the “% activity” value is 14% and the “IC50 (nM), functional” value was above 1000 nM.

Another assay deals with T1, human NMUR1. The assay is described as follows: 125I-hNMU-25 displacement, HEK cell membranes. Here is the method:
(§1) Confluent cell monolayers expressing NMU receptors (the HEK cells described above) were harvested with phosphate buffered saline, collected by centrifugation, and resuspended in membrane buffer (50 mM TrisCl pH 7.4, 5 mM MgCl₂, 1× Protease Inhibitor Cocktail, 10 μM phosphoramidon). After the cell pellet was homogenized, the solution was centrifuged at 18,000 rpm for 20 minutes at 4° C. The pellet was resuspended in membrane buffer to yield a final concentration of 0.5-5 μg/μL of membrane and stored at −80° C.
(§2) Experiments were performed in assay buffer (25 mM TrisCl, pH 7.4, 10 mM MgCl₂, 2mM EDTA, 1× Protease Inhibitor Cocktail, 100 μg/mL Bacitricin, 10 μM phosphoramidon) in 200 μL volumes in a 96-well format using 2-5 μg of membrane and […] ¹²⁵I-hNMU-25 (about 12,000 cpm/well). For non-specific binding, 1 μM hNMU-25 was added. About 5 μL of peptides were added to measure antagonist activity, and the entire reaction was incubated at room temperature with shaking for 80 minutes. The reaction was terminated by rapid filtration through 0.3% poly-ethylenimine presoaked Millipore 96-well filter plates and washed with ice-cold buffer (5 mM TrisCl pH 7.4, 10 mM MgCl₂, 2.5 mM EDTA, 0.04% Triton X-100). Plates were air-dried overnight at room temperature and recovered radioactivity was determined by standard scintillation counting. IC₅₀ values were determined using GraphPad Prism software.
(§3) Concentration-response curves and radioligand-binding data were fitted using Prism (GraphPad Software). Results are summarized below in Tables 8 and 9.
In general, IC50 refers to the concentration that inhibits the measured activity by half. Higher therefore signals weaker potency. Regarding B6, the “% activity (binding)” value turned out to be 93% and the IC50 is 75 nM.
In the case of B7, the “% activity (binding)” value was determined as 100% and the IC50 worked out at 2.6 nM.
For B8, the “% activity (binding)” value stood at 96% and the IC50 was 14 nM.
The like results for B9 were, in that order, 100% and 0.42 nM.
As for B1, the “% activity (binding)” value stood at 1%.
Take B2: the “% activity (binding)” value is 38.4%.
Take B3: the “% activity (binding)” value is 23%.
Still for that read-out and setting: with B4 the figure was 34%.
Consider B5, for which the “% activity (binding)” value came to 16%.
On to B10, for which the “% activity (binding)” value amounted to 97% and the IC50 was determined as 2.1 nM.

In a further assay the target is T2, human NMUR2. The assay is described as follows: 125I-hNMU-25 displacement, HEK cell membranes. As for the experimental part:
as §1, §2, §3
On to B6, for which the “% activity (binding)” value worked out at 5%.
Still for that read-out and setting: with B7 the figure was 0%.
The same measure, in the same setting: with B8 the figure was 35%; with B9, 0%.
In the case of B1, the “% activity (binding)” value worked out at 81% and the IC50 came out at 150 nM.
The corresponding values for B2 are 100% and 22 nM.
In the case of B3, the “% activity (binding)” value is 90% and the IC50 came out at 9.1 nM.
The corresponding values for B4 are 63% and 150 nM.
With B5, the “% activity (binding)” value is 89% and the IC50 was 12 nM.
The like results for B10 were, in that order, 33% and 31 nM.
